Tests used:
[1] = molecular target: human BMP9 recombinant protein prepared according to Example 12 of WO 2010/126169 (N-terminal His-tagged hBMP9 complex, pLN1V5_human BMP9 vector) (human) (UniProt Q9UK05); assay: SPR (BIAcore 2000), antibody captured on anti-mouse IgG, human BMP9 recombinant protein as analyte, single cycle kinetics
[2] = molecular target: human mature dimer BMP9 recombinant protein (manufactured by R&D systems, Cat#3209-BP) (human) (UniProt Q9UK05); assay: ELISA, immobilized human BMP9 (100 ng/mL coat), biotin-labeled antibody titrated, absorbance 450-570 nm; unit ng/mL from the legend
Chain of human mature dimer BMP9 recombinant protein (manufactured by R&D systems, Cat#3209-BP) (human) (Q9UK05 320-429): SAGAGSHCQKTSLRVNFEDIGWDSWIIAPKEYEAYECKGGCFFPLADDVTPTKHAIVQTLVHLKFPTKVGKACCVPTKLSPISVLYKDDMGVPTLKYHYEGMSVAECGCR

Chain of human BMP9 recombinant protein prepared according to Example 12 of WO 2010/126169 (N-terminal His-tagged hBMP9 complex, pLN1V5_human BMP9 vector) (human) (Q9UK05 320-429, chain 1 of 2): as the sequence (Q9UK05 320-429) above
Chain of human BMP9 recombinant protein prepared according to Example 12 of WO 2010/126169 (N-terminal His-tagged hBMP9 complex, pLN1V5_human BMP9 vector) (human) (Q9UK05 23-319, chain 2 of 2): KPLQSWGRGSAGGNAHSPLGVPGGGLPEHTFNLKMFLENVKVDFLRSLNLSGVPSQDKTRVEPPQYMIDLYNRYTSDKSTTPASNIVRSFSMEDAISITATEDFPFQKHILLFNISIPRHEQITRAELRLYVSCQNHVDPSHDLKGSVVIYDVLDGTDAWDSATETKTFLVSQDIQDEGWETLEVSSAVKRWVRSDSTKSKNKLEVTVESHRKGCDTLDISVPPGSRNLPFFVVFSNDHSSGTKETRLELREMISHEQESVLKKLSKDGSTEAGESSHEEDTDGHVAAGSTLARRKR

Substance: anti-human BMP9 mouse monoclonal antibody (manufactured by R&D systems, clone No. 360107)
- Kd [1]: 0.616 nM
- Relative binding affinity (to R&D antibody) [1]: 1 fold
- EC50 (read off the curve) [2]: 10 ng/mL

— patent publication US20140056902A1
